Measured values as given in US6710030B1, “Contortrostain (CN) and methods for its use in preventing metastasis and other conditions” (University of Southern California, priority 1993, dated 2004).
Entries after “also recorded” stand apart in the source; their conditions may differ.

Columns and labels:
canine PRP = test: ADP-induced platelet aggregation in canine PRP; type: cell-based; conditions: 20 μM ADP
Experimental: Column fractions obtained during purification were assayed for activity using fresh human platelet rich plasma (PRP) prepared from blood obtained from human volunteers who had had no medication for at least two weeks. Blood (36 ml) was drawn into 4 ml of 0.1 M citrate and centrifuged at 150×g for 20 minutes. The supernatant, PRP, was removed and the remaining blood was centrifuged at 10,000 RPM to obtain platelet poor plasma (PPP). Platelet counts were adjusted to 250,000 platelets/μl using a Coulter counter. A Helena four channel aggregometer was used to monitor platelet aggregation. Inhibition of ADP-induced platelet aggregation was monitored at 37° C. by adding venom fractions one minute prior to the addition of ADP (10-20 μM final concentration). […] Rabbit and canine PRP was prepared by the same procedure and used in the studies described below.
CN inhibited ADP-induced platelet aggregation in human, canine, and rabbit PRPs (FIG. 6). Empty circles represent human platelet rich plasma, solid circles represent canine PRP, and empty triangles represent rabbit PRP. Varying concentration of CN were preincubated for one minute with PRP prior to the addition of ADP.

[1] = tested on: unactivated human platelets; test: Scatchard analysis of CN binding to unactivated human platelets
MDA-MB-435 tumor = test: Orthotopic MDA-MB-435 breast cancer metastatic model in nude mice; type: in vivo
Experimental: A spontaneous (orthotopic) metastatic model of nude mice has been established by implantation of MDA-MB-435 cells (5×10^5 in 0.1 ml) in the mammary fat pads (mfp). Palpable tumors appeared by the 10th day post-implantation. Daily injections of CN into the tumor masses of each of the groups arc carried out, started at the 14th day post-implantation. By the 8th week post-implantation, tumors were removed. The animals were allowed to survive for 2 more weeks without CN administration. The animals were then sacrificed and lung metastases were carefully examined. […] The volumes of tumor masses (mean±S.D.) of control (dark bars), low-dosage (0.5 μg/day, gray bars), and high-dosage (5 μ/day, light gray bars) CN-treated group are shown. The seven clusters of bars from left to right represent the data of pre-injection (PI, 14th day post-implantation) and the 1st through 6th week of injection. Student t-tests were employed to test the significance of differences. *and** indicate P<0.05 and p<0.01, respectively.

MDA-MB-435 tumor on CAM = test: MDA-MB-435 tumor induced angiogenesis on chick embryo chorioallantoic membrane (CAM); type: in vivo
Experimental: MDA-MB-435 tumor masses were inoculated on CAM of 10-day chick embryos. CN at various dosages were injected intravenously into CAM on day 2 post-inoculation. […] Chick embryo is immunodeficient, and thus allows the growth of implanted MDA-MB-435 tumor. The embryos are incubated at 37° C. with humidity at 60%. CN at various dosages was injected intravenously into CAM on day 2 post-inoculation. […] On the top (FIG. 16A) is the control embryo. The vessels are distributed in a convergent manner with the tumor mass in the center. In the middle (FIG. 16B) is the CAM treated with 20 μg of CN. On the bottom (FIG. 16C) is the CAM treated by 150 μg of CN.

[2] = tested on: chick chorioallantoic membrane; test: bFGF and VEGF induced angiogenesis in chick chorioallantoic membrane model; conditions: in vivo
From the text: Significance: The function of αvβ5 has been indicated by many studies. […] Although αvβ5 participates in the initiation of cell adhesion to vitronectin, unlike αvβ3 which mediates cell migration constitutively, αvβ5 mediates migration only when activated by growth factors, such as insulin-like growth factor-1 (IGF-1), epidermal growth factor (EGF), and transforming growth factor-α (TGF-α).

OVCAR-5 cells [3] = test: Adhesion of OVCAR-5 cells to vitronectin coated plate; type: cell-based, human
From the text: FIG. 21. CN and other antagonists of αvβ5 inhibits adhesion of OVCAR-5 cells to vitronectin. Adhesion of cancer cells to the matrix is one of the critical steps of cancer spreading and metastasis. It is well established that integrin αvβ5 mediates adhesion of cells to vitronectin.

OVCAR-5 cells [4] = test: Phosphotyrosine immunoblot, OVCAR-5 cells; type: cell-based, human; conditions: data not shown
platelets = test: Platelet release reactions (granule contents); type: cell-based
From the text: Platelets comprise a plurality of different granules, including alpha granules and dense granules, whose contents are released when the platelets aggregate. […] Thus, normal platelet physiological processes are necessarily further perturbed with administration of applaggin.

canine platelets = conditions: cited from earlier work

B1: contortrostatin (protein)
chain: DAPANPCCDAATCKLTTGSQCADGLCCDQCKFMKEGTVCRRARGDDLDDYCNGISAGCPRNPFHA
With B1 the “IC50 of ADP-induced canine platelet aggregation” value (canine PRP) was 1.8 µg/mL, the “number of binding sites (Bm)” value [1] was 100,000 and the “# of nodules in lung (median)” value (MDA-MB-435 tumor; 5 μg/day) was 4.5. For the same molecule, the “Mean size of relapse tumor” value (MDA-MB-435 tumor; 5 μg/day) was 48.7 ± 10.5 mm^3, the In situ relapse (MDA-MB-435 tumor; 5 μg/day, animals with/total) was 2/6 and the “Metastasis incidence, Other Organs” value (MDA-MB-435 tumor; 5 μg/day, chest wall, mediastinum, diaphragm, pleurae) was 2/6. The “growth of the tumor (tumor mass volume)” value (MDA-MB-435 tumor; daily local injection into tumor) was “substantially inhibited the growth rate of the tumor; also recorded: significantly smaller”, the inhibition of metastasis (MDA-MB-435 tumor; high dose CN group versus control) was > 90% and the “mean weight of tumors” value (MDA-MB-435 tumor; high-dose CN (5 μg/day), P<0.05) was “significantly lower than control group”. For the same molecule, the “bleeding at the injection sites” value (MDA-MB-435 tumor; mouse, in vivo) was “Some bleeding at the injection sites”, the spontaneous hemorrhage (MDA-MB-435 tumor; mouse, in vivo) was “no spontaneous hemorrhage” and the “toxicity in chronic experiment” value (MDA-MB-435 tumor; mouse, in vivo) was “not toxic”. For the same molecule, the “tumor mass on CAM” value (MDA-MB-435 tumor on CAM; 20 μg of CN) was “smaller than that on control CAM”, the “tumor induced angiogenesis (vessels)” value (MDA-MB-435 tumor on CAM; 20 μg of CN intravenously) was “thinner and less dense than control” and the “tumor mass on CAM” value (MDA-MB-435 tumor on CAM; 150 μg of CN) was “necrotic tumor mass with volume significantly smaller than control and low dose CN”. The “tumor induced angiogenesis (vessels)” value (MDA-MB-435 tumor on CAM; 150 μg of CN intravenously) was “the vessels are even thinner and the convergent distribution pattern disappears completely”, the “angiogenesis induced by bFGF and VEGF” value [2] was “inhibits angiogenesis” and the “adhesion of OVCAR-5 cells to vitronectin” value (OVCAR-5 cells [3]) was “inhibited”. The tyrosine phosphorylation (OVCAR-5 cells [4]) was “do not show significant enhancement of tyrosine phosphorylation”, the platelet release reactions (platelets) was “does not inhibit platelet release reactions” and the “50% inhibition (IC50) of platelet aggregation, canine platelets” value (canine platelets) was 2.2 µg/mL.
